Assay results taken from US6812337 (GOVERNING COUNCIL OF THE UNIVERSITY OF TORONTO, dated 2004).

Assays:
[1] = target: wild type human presenilin-1 (PS1) (human, UniProt P49768 1-467); assay: cell-based or functional assay
[2] = target: T1, V5-tagged human Presenilin Associated Membrane Protein (PAMP) (human, UniProt Q92542 34-709); assay: immunoprecipitation from cell lysates, Western blot
T1 construct: Expressed by transfection in HEK293 cells or murine embryonic fibroblasts and tested by co-immunoprecipitation from detergent lysates; Glycosylated (~110 kDa, ~80 kDa after Endo H); also called V5-PAMP; V5-tagged-PAMP

| Aβ42/Aβ40 Ratio [1] | binding result [2] | Binder |
| --- | --- | --- |
| 0.59 normalized to mock transfection |  | PAMPΔ312-340 (other, not shown: small tags and cut ends) NSVERKIYIPLNKTAPCVRLLNATHQIGCQSSISGDTGVIHVVEKEEDLQWVLTDGPNPPYMVLLESKHFTRDLMEKLKGRTSRIAGLAVSLTKPSPASGFSPSVQCPNDGFGVYSNSYGPEFAHCREIQWNSLGNGLAYEDFSFPIFLLEDENETKVIKQCYQDHNLSQNGSAPTFPLCAMQLFSHMHAVISTATCMRRSSIQSTFSINPEIVCDPLSDYNVWSMLKPINTTGTLKPDDRVVVAATRLDSRSFFWNVAPGAESAVASFVTQLAAAEASRMVYDMEKGKFPVQLENVDSFVELGQVALRTSLELWMHTDPVSQKNESVRNQVEDLLATLEKSGAGVPAVILRRPNQSQPLPPSSLQRFLRARNISGVVLADHSGAFHNKYYQSIYDTAENINVSYPEWLSPEEDLNFVTDTAKALADVATVLGRALYELAGGTNFSDTVQADPQTVTRLLYGFLIKANNSWFQSILRQDLRSYLGDGPLQHYIAVSSPTNTTYVVQYALANLTGTVVNLTREQCQDPSKVPSENKDLYEYSWVQGPLHSNETDRLPRCVRSTARLARALSPAFELSQWSSTEYSTWTESRWKDIRARIFLIASKELELITLTVGFGILIFSLIVTYCINAKADVLFIAPREPGAVSY |
|  | no binding | calnexin (other, UniProt P27824 21-592, looked up, whole, on cells; The only named member of 'other ER-resident proteins'; also called other ER-resident proteins (e.g., calnexin)) HDGHDDDVIDIEDDLDDVIEEVEDSKPDTTAPPSSPKVTYKAPVPTGEVYFADSFDRGTLSGWILSKAKKDDTDDEIAKYDGKWEVEEMKESKLPGDKGLVLMSRAKHHAISAKLNKPFLFDTKPLIVQYEVNFQNGIECGGAYVKLLSKTPELNLDQFHDKTPYTIMFGPDKCGEDYKLHFIFRHKNPKTGIYEEKHAKRPDADLKTYFTDKKTHLYTLILNPDNSFEILVDQSVVNSGNLLNDMTPPVNPSREIEDPEDRKPEDWDERPKIPDPEAVKPDDWDEDAPAKIPDEEATKPEGWLDDEPEYVPDPDAEKPEDWDEDMDGEWEAPQIANPRCESAPGCGVWQRPVIDNPNYKGKWKPPMIDNPSYQGIWKPRKIPNPDFFEDLEPFRMTPFSAIGLELWSMTSDIFFDNFIICADRRIVDDWANDGWGLKKAADGAAEPGVVGQMIEAAEERPWLWVVYILTVALPVFLVILFCCSGKKQTSGMEYKKTDAPQPDVKEEEEEKEEEKDKGDEEEEGEEKLEEKQKSDAEEDGGTVSQEEEDRKPKAEEDEILNRSPRNRKPRRE |
| 0.09 normalized to mock transfection |  | PAMPΔ312-369 (other, not shown: small tags and cut ends) NSVERKIYIPLNKTAPCVRLLNATHQIGCQSSISGDTGVIHVVEKEEDLQWVLTDGPNPPYMVLLESKHFTRDLMEKLKGRTSRIAGLAVSLTKPSPASGFSPSVQCPNDGFGVYSNSYGPEFAHCREIQWNSLGNGLAYEDFSFPIFLLEDENETKVIKQCYQDHNLSQNGSAPTFPLCAMQLFSHMHAVISTATCMRRSSIQSTFSINPEIVCDPLSDYNVWSMLKPINTTGTLKPDDRVVVAATRLDSRSFFWNVAPGAESAVASFVTQLAAAEALRTSLELWMHTDPVSQKNESVRNQVEDLLATLEKSGAGVPAVILRRPNQSQPLPPSSLQRFLRARNISGVVLADHSGAFHNKYYQSIYDTAENINVSYPEWLSPEEDLNFVTDTAKALADVATVLGRALYELAGGTNFSDTVQADPQTVTRLLYGFLIKANNSWFQSILRQDLRSYLGDGPLQHYIAVSSPTNTTYVVQYALANLTGTVVNLTREQCQDPSKVPSENKDLYEYSWVQGPLHSNETDRLPRCVRSTARLARALSPAFELSQWSSTEYSTWTESRWKDIRARIFLIASKELELITLTVGFGILIFSLIVTYCINAKADVLFIAPREPGAVSY |
